# Bridges are numbered along the chain shown (N, C = ends). Where no end group is shown, it is not given here.
# Legend:
# [1] = tested on: chymotrypsin; conditions: cited from earlier work
# [2] = biological target: T1, chymotrypsin (Bos taurus, UniProt P00766, DEL14-15/DEL147-148); test: T84 cGMP assay to assess guanylin activity after a chymotrypsin digestion assay (guanylin degradation assay); type: biochemical, bovine; conditions: T84 cells, FIG. 1
# T1 construct: purchased Sigma C6423
# Procedure: Since guanylin is susceptible to digestion by chymotrypsin, chymotrypsin activity can be assayed based on guanylin cleavage. […] From this stock, six (6) 500 μl aliquots were prepared in 2 ml Eppendorf tubes and labeled “Control”, “T0”, “T15”, “T30”, “T60”, and “T180”, with “T_” representing timepoints, in minutes. 5 μl of a 10 mM chymostatin (Sigma, C7268) stock (5 mg of chymostatin resuspended in 824 μl of DMSO) was added to the “Control” samples and all samples were incubated for 5 minutes at 30° C. Chymostatin inhibits chymotrypsin activity and this sample served as a negative control. Next, 20 μl of a chymotrypsin (Sigma, C6423) enzyme solution (0.01 mg/ml bovine chymotrypsin enzyme in 1 mM HCl, 2 mM Calcium Chloride) were added to the samples and mixed by inversion. Samples are incubated at 30° C. […] Determination of sensitivity to digestion by chymotrypsin was determined by LCMS analysis and by in vitro activity in the T84 cGMP assays described below.
# The ability of guanylin to activate the intestinal GC-C receptor was assessed in an assay employing the T84 human colon carcinoma cell line (American Type Culture Collection (Bethesda, Md.). For the assays cells were grown to confluency in 24-well culture plates with a 1:1 mixture of Ham's F12 medium and Dulbecco's modified Eagle's medium (DMEM), supplemented with 5% fetal calf serum and were used at between passages 54 and 60. […]
# [3] = tested on: intestinal fluid secretion; conditions: suckling mouse model; Santos-Neto et al 2003 Pharm & Toxicol 92:114; cited from earlier work
# [4] = tested on: Guanylin (Sigma, G-116)
compound,measurement,setting,value
"guanylin: intestinal peptide that stimulates chloride secretion; mature protein has 15 amino acids; agonist of the GC-C receptor (PGTCEICAYAACTGC; disulfide 4-12, 7-15; UniProt Q02747 101-115, looked up)",cleavage of guanylin by chymotrypsin,"[1]; Greenberg et al. J Investig Med 45:276-82, 1997",chymotrypsin can cleave guanylin
same,guanylin stimulated cGMP activity,"[2]; in the presence of chymotrypsin, timepoints 0-180 min at 30° C.",decreases over time
"CC(C)C[C@H](NC(=O)[C@@H](NC(=O)N[C@@H](Cc1ccccc1)C(=O)O)C1CCNC(=N)N1)C(=O)N[C@H](C=O)Cc1ccccc1 (stereo partly drawn) [chymostatin, N—(Na-Carbonyl-[S,S]-a-(2-Iminohexahydro-4-pyrimidyl)glycine)-X-Phe-al)-Phe where X is Leu, Val or Ile]",guanylin-induced intestinal fluid secretion,[3],required in order to observe guanylin-induced intestinal fluid secretion
same,chymotrypsin-mediated inactivation of guanylin,[1],can be prevented
same,guanylin stimulated cGMP activity when chymotrypsin inhibitor present,[2]; chymostatin present during chymotrypsin digestion of guanylin,retained
"bovine chymotrypsin enzyme (Sigma, C6423)",guanylin degradation assay: loss of guanylin-stimulated cGMP activity and LC/MS of guanylin processing,[4],guanylin stimulated cGMP activity decreases over time in the presence of chymotrypsin

# — patent US20090054319A1, “Methods and Compositions for the Treatment of Hypertension and Gastrointestinal Disorders” (MICROBIA, INC., priority 2005, published 2009)
